Source: IntAct's records for PubMed 31712417

target: if4e_human EIF4E (UniProt P06730)
Sequence (P06730 whole entry): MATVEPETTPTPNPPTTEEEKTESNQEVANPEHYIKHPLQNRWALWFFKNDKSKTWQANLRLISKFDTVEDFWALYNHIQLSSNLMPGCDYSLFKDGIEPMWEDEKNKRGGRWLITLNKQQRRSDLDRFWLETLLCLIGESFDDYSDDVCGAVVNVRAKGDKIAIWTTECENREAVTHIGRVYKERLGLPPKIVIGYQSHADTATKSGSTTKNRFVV

Row | Substance | effect of a mutation on the interaction
1 | Genome polyprotein (Potato virus Y (strain N)), P18247 M1958A;Q1959A | decreasing interaction
2 | Genome polyprotein (Potato virus Y (strain N)), P18247 E1929K;E1930K | with no effect
3 | Genome polyprotein (Potato virus Y (strain N)), P18247 L1961G | decreasing interaction
4 | Genome polyprotein (Potato virus Y (strain N)), P18247 D1954A;D1955A;E1957A | decreasing interaction
5 | Genome polyprotein (Potato virus Y (strain N)), P18247 D1935K | with no effect
6 | Genome polyprotein (Potato virus Y (strain N)), P18247 V1951G;E1952K | decreasing interaction
7 | Genome polyprotein (Potato virus Y (strain N)), P18247 E1941K;E1945K | with no effect
8 | Genome polyprotein (Potato virus Y (strain N)), P18247 D1954A;D1955A;Q1959A | decreasing interaction
